Assay results as given in the supplement of paper PMC10567573.

B1: ZNF263 (parent)
chain: KPYKCTLCGENFSHRSNLIRHQRI
B2: RHOBTB2 (parent)
chain: HHHHGRDFLLRAASFDVCESVDEA

Variants of: B1
Assay: protein stability index of a GFP-peptide fusion (GPS, HEK-293T) (PSI 1-6); higher = more stable
Details: c terminus: a fixed tail appended
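Note: lentivirally expressed fusions sorted by FACS into six bins by GFP to DsRed ratio, PSI derived from sequencing read proportions per bin multiplied by bin number.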

Protein stability index, by site and new letter:
K1: V 1.56, F 2.56, Q 2.38, L 2.25, I 2.16, C 2.67, T 2.08, D 3.07, W 1.92, G 2.27, P 3.08
E10: D 2.25, N 2.24, V 2.56, W 2.35, Q 2.98, P 2.09, K 3.4, G 3.09, M 2.67, H 2.71, L 1.88, Y 1.69, S 2.61, T 2.06
R23: K 3.08, T 1.88, W 1.65, C 4.48, H 3.28, Q 2.34, Y 2.57, E 2.67, L 2.82, A 2.57, M 2.88, P 1.33, N 2.63, S 2.28
F12: W 2.12, M 2.01, V 3.52, D 1.28, S 1.99, N 1.96, H 2.65, Q 2.18, T 1.66
T6: N 2.6, M 2.08, A 2.43, V 2.07, I 2.38, K 2.69, F 2.61, W 2.53, G 2.67, R 2.96, D 2.7
H14: P 1.85, L 2.73, A 2.56, V 2.43, N 2.56, Y 3.16, K 2.81, F 2.23, R 2.41, D 2.68, I 2.07
G9: E 2.29, Q 2.79, M 2.38, P 1.67, D 2.01, H 1.81, W 1.62, R 2.5, A 2.19, Y 2.61, V 2.14
L7: W 2.69, C 3.9, I 3.06, S 2.68, F 2.51, P 1.69, H 3.88, V 3.37, D 3.02, N 2.78, M 3.12, A 3.07
I19: P 2.11, L 2.32, W 1.5, K 2.65, E 2.89, V 2.54, S 1.88, M 2.62, Q 2.44
L18: W 2.19, N 2.21, H 2.93, M 1.93, R 2.81, F 2.56, V 2.59, C 3.22
K4: Y 2.16, L 1.84, R 2.54, Q 2.48, S 1.9, H 2.95, M 2.23, C 1.7, V 2.87
Y3: V 2.28, C 2.47, S 2.11, D 1.84, Q 2.14, E 1.78, K 3.17, M 1.73, F 2.23, A 1.9, T 2.4
C8: T 2.69, N 2.89, F 2.11, Q 2.74, H 2.1, S 4.1, W 1.88, V 2.47, L 2.44, R 1.73, A 2.34, K 3.61, M 1.83, P 2.45
P2: K 2.92, H 2.49, L 2.53, F 2.12, M 2.05, A 2.7, S 2.59, D 2.3, N 2.49, G 2.77, T 2.53, W 2.05
C5: S 2.43, K 2.44, W 1.61, N 2.41, V 2.06, L 2.47, D 2.69, H 2.34, G 2.22, E 2.19, T 2.09
N11: W 2.25, F 2.61, D 2.23, A 2.72, G 2.52, H 3.33, L 2.69, V 2.83, Q 2.62, R 3.03, I 3.18, K 2.98, P 1.8, Y 2.8
R15: P 2.52, Q 2.43, F 2.96, A 2.87, N 2.1, S 1.38, K 2.28, G 2.08, M 2.85, C 2.34
S13: H 2.38, L 2.32, R 3.45, P 2.45, E 2.52, M 2.52, D 2.12, Q 2.84, F 2.26
R20: C 2.45, D 2.84, Y 1.68, P 1.7, M 2.22, K 2.67, W 1.76, L 2.15, E 3.12, A 2.43, N 2.38, S 1.8, G 2.37
H21: R 1.78, Q 1.14, S 1.89, L 1.89, C 2.6, K 2.04, E 2.58, M 2.72, T 2.22, Y 2.46, D 2.29
N17: W 2.07, R 2.64, E 3.31, D 3.88, T 2.65, I 2.93, Q 2.9, A 3.59, H 3.64, K 3.28, G 3.16
I24: L 2.3, E 3.68, H 2.45, D 3.09, P 2.59, R 3.16, K 2.89, S 2.53, T 2.64, A 2.81
S16: E 2.53, M 2.26, D 2.74, T 1.65, K 3.28, V 1.87, Y 2.91, A 2.04, P 1.77, N 2.13, F 2.02, H 2.76
Q22: D 2.01, A 2.49, M 3.43, N 2.61, V 2.29, L 2.35, W 2.65, F 2.35, R 3.17, E 1.66

Variants of: B2
Assay: as above
Details: c terminus: a fixed tail appended

Protein stability index: each site, then its substitutions
H4: I 3.83, G 3.73, E 3.96, A 3.67, C 2.67, L 3.65, F 3.38, M 3.61, D 4.12, K 3.25
H1: M 4.17, K 4.35, A 4.49, Y 3.84, F 1.48, I 3.45, N 4.53, R 3.92, V 3.21, T 4.59, P 4.71, L 3.74, C 4.02, D 4.88, W 3.36, Q 4.26, E 4.42, G 4.55, S 4.34
H3: V 3.65, R 2.76, D 4.67, Q 3.87, N 4.44, I 3.52, A 3.58, E 4.71, M 3.4, F 3.33, T 3.58, L 3.62, W 2.43, K 3.04, C 2.92, G 3.9, Y 3.51, S 3.83, P 3.56
H2: I 3.92, G 3.72, N 4.52, V 3.46, C 3.43, A 4.04, M 3.96, W 3.35, K 4.67, S 2.62, D 4.67, Y 4.16, T 1.8, Q 4.04, E 4.75, P 4.49, L 3.93, R 3.9, F 3.69
